Reference: US11911450B2, “Method for managing pain” (UNIVERSITY OF MIAMI, priority 2017, dated 2024)
“Also recorded” adds a separate entry of the source.

How the values were obtained:
ITPR1 = ITPR1 (Homo sapiens, UniProt Q14643); assay: co-immunoprecipitation / western blot with ITPR1 and pITPR1; type: binding; set-up: before and after forskolin stimulation of HEK293 cells was conducted; endogenous in cells; host or cells: HEK293 (ATCC CRL-1573); details: HEK293 cells, before and after forskolin stimulation
Experimental: Immunoprecipitation: Fifty μl magnetic beads (Invitrogen) were incubated with 1 μg pITPR1 antibody for 45 minutes at 4° C. The supernatant was discarded and the beads were washed with binding buffer. Sample proteins of 200-400 μg were added and incubated with the beads for 4 hrs at 4° C. Then the protein complex was washed 3 times with washing buffer, and then eluted with SDS sample buffer. Samples were then heated at 70° C. for 10 min and then subjected to western blot analysis for Car10. The method described herein also is suitable for use in connection with Car8, CA8, CA8 fragment (CA8-204), CA10, Car11 and CA11.
Overexpression of V5-Car10 and V5-CA10 inhibits ATP-induced free calcium release in vitro: ITPR1 contains functionally distinct domains, including the ‘modulatory’ domain responding to intracellular modulators such as calcium, calmodulin, ATP, and carbonic anhydrase-8 (Car8). ATP increases ITPR1-dependent calcium release by increasing the open probability of the channel in the presence of activating concentrations of IP3 and calcium. It is believed that Car8-mediated inhibition of ITPR1 activation and ATP-mediated calcium release requires binding to this modulatory domain. Therefore, the ability of CA8 fragments (e.g., CA8-204), Car10 and CA10 to bind to ITPR1 and pITPR1 was examined. […]

[1] = morphine dose vs paw withdrawal latency; type: in vivo, mouse; details: allometric conversion to 60 kg human
Experimental: Behavioral tests: Thermal and mechanical sensitivity was measured by Hargreaves test and von Frey filament threshold calculations respectively. See, e.g., Boyce-Rustay et al. Methods Mol Biol. 2010; 617:41-55; Hargreaves et al., Pain. 1988; 32(1):77-88; and Chaplan et al., J Neurosci Methods. 1994; 53(1):55-63. Tests were performed in a quiet room with daylight-like illumination. Animals were habituated to the behavioral room and apparatus for at least 60 minutes for 1 week before a blinded investigator collected data. The thermal sensitivity test was performed using an IITC Plantar Analgesia Meter apparatus (IITC Life sciences, Woodland Hills, CA) with a plastic box placed on a glass plate of constant temperature (30° C.). The mouse plantar surface was exposed to a beam of radiant heat to induced paw withdrawal. Baseline latencies were adjusted to 5-9 sec with a maximum of 20 sec as cutoff to prevent potential injury. The latency time in seconds from the onset of the intense light beam to paw withdrawal was defined as the withdrawal latency of the paw. […] The mouse hind paw was pressed with one of a series of von Frey filaments with logarithmically incrementing stiffness (Stoelting Co, Wood Dale, IL) presented perpendicular to the plantar surface of each hind paw for 1-2 seconds, the 50% threshold was determined using the Up- and Down method.

RYR1 = target: T1, RYR1 (Homo sapiens, UniProt P21817); assay: immunoprecipitation (anti-RYR1) and western blot (anti-V5) in NBL cells; type: binding; details: 48 h after transfection
T1 construct: NBL cells were transfected with AAV-V5-CA10 and AAV-V5-Car10 using Lipofectamin (LTX); endogenous in cells; host or cells: NBL cells transfected with V5-CA10 / V5-Car10 only
Experimental: NBL cells were transfected with AAV-V5-CA10 and AAV-V5-Car10 using Lipofectamin (LTX). Cellular protein was extracted 48 h after transfection.
Immunoprecipitation (IP) and western blotting (WB) was utilized to detect binding. Rabbit anti-RYR1 was used for IP and chicken anti-V5 was used for WB analyses. About 1/10 of the IP protein was used for WB to show the V5 labeled CA10 or Car10 by WB. B-actin was used as a loading control. See FIG. 33, which establishes co-immunoprecipitation of CA10 and RYR.

[2] = system: neuropathic (Chung) mouse pain model; assay: neuropathic (Chung, spinal nerve ligation) mouse pain model, mechanical withdrawal threshold (von Frey); type: in vivo, C57BL/6J mice; details: sciatic nerve injection; spinal nerve ligation on Day 19
Experimental: Sciatic nerve injection of expression vectors (adeno-associated AAV8-V5-Car10 and AAV8-V5-CA10 vectors): Mice were anesthetized by intraperitoneal injection of Ketamine, xylazine and acepromazine cocktail (VEDCO, Saint Joseph, MO). Following sciatic nerve exposure, about 1.5 μl viral particles of AAV8-null (1.36E^13 viral particles, SL100832 SignaGen Laboratories Rockville, MD), AAV8-V5-Car10 and AAV8-V5-CA10 (1.06E^14 viral particles and 1.66E^14 viral particles, respectively) were injected into the sciatic nerve using a 35-gauge Nanofil needle (World Precision Instruments, Sarasota, FL). The sciatic injection site was approximately 45 mm from the tip of the third toe.
Neuropathic pain model: For the induction of peripheral neuropathy, mice were first anesthetized by an intraperitoneal injection of ketamine, xylazine hydrochloride and acepromazine (VEDCO, Saint Joseph, MO). […]
Behavioral tests: Thermal and mechanical sensitivity was measured by Hargreaves test and von Frey filament threshold calculations respectively. […] The mouse hind paw was pressed with one of a series of von Frey filaments with logarithmically incrementing stiffness (Stoelting Co, Wood Dale, IL) presented perpendicular to the plantar surface of each hind paw for 1-2 seconds, the 50% threshold was determined using the Up- and Down method.

T1 sequence (P21817 whole entry): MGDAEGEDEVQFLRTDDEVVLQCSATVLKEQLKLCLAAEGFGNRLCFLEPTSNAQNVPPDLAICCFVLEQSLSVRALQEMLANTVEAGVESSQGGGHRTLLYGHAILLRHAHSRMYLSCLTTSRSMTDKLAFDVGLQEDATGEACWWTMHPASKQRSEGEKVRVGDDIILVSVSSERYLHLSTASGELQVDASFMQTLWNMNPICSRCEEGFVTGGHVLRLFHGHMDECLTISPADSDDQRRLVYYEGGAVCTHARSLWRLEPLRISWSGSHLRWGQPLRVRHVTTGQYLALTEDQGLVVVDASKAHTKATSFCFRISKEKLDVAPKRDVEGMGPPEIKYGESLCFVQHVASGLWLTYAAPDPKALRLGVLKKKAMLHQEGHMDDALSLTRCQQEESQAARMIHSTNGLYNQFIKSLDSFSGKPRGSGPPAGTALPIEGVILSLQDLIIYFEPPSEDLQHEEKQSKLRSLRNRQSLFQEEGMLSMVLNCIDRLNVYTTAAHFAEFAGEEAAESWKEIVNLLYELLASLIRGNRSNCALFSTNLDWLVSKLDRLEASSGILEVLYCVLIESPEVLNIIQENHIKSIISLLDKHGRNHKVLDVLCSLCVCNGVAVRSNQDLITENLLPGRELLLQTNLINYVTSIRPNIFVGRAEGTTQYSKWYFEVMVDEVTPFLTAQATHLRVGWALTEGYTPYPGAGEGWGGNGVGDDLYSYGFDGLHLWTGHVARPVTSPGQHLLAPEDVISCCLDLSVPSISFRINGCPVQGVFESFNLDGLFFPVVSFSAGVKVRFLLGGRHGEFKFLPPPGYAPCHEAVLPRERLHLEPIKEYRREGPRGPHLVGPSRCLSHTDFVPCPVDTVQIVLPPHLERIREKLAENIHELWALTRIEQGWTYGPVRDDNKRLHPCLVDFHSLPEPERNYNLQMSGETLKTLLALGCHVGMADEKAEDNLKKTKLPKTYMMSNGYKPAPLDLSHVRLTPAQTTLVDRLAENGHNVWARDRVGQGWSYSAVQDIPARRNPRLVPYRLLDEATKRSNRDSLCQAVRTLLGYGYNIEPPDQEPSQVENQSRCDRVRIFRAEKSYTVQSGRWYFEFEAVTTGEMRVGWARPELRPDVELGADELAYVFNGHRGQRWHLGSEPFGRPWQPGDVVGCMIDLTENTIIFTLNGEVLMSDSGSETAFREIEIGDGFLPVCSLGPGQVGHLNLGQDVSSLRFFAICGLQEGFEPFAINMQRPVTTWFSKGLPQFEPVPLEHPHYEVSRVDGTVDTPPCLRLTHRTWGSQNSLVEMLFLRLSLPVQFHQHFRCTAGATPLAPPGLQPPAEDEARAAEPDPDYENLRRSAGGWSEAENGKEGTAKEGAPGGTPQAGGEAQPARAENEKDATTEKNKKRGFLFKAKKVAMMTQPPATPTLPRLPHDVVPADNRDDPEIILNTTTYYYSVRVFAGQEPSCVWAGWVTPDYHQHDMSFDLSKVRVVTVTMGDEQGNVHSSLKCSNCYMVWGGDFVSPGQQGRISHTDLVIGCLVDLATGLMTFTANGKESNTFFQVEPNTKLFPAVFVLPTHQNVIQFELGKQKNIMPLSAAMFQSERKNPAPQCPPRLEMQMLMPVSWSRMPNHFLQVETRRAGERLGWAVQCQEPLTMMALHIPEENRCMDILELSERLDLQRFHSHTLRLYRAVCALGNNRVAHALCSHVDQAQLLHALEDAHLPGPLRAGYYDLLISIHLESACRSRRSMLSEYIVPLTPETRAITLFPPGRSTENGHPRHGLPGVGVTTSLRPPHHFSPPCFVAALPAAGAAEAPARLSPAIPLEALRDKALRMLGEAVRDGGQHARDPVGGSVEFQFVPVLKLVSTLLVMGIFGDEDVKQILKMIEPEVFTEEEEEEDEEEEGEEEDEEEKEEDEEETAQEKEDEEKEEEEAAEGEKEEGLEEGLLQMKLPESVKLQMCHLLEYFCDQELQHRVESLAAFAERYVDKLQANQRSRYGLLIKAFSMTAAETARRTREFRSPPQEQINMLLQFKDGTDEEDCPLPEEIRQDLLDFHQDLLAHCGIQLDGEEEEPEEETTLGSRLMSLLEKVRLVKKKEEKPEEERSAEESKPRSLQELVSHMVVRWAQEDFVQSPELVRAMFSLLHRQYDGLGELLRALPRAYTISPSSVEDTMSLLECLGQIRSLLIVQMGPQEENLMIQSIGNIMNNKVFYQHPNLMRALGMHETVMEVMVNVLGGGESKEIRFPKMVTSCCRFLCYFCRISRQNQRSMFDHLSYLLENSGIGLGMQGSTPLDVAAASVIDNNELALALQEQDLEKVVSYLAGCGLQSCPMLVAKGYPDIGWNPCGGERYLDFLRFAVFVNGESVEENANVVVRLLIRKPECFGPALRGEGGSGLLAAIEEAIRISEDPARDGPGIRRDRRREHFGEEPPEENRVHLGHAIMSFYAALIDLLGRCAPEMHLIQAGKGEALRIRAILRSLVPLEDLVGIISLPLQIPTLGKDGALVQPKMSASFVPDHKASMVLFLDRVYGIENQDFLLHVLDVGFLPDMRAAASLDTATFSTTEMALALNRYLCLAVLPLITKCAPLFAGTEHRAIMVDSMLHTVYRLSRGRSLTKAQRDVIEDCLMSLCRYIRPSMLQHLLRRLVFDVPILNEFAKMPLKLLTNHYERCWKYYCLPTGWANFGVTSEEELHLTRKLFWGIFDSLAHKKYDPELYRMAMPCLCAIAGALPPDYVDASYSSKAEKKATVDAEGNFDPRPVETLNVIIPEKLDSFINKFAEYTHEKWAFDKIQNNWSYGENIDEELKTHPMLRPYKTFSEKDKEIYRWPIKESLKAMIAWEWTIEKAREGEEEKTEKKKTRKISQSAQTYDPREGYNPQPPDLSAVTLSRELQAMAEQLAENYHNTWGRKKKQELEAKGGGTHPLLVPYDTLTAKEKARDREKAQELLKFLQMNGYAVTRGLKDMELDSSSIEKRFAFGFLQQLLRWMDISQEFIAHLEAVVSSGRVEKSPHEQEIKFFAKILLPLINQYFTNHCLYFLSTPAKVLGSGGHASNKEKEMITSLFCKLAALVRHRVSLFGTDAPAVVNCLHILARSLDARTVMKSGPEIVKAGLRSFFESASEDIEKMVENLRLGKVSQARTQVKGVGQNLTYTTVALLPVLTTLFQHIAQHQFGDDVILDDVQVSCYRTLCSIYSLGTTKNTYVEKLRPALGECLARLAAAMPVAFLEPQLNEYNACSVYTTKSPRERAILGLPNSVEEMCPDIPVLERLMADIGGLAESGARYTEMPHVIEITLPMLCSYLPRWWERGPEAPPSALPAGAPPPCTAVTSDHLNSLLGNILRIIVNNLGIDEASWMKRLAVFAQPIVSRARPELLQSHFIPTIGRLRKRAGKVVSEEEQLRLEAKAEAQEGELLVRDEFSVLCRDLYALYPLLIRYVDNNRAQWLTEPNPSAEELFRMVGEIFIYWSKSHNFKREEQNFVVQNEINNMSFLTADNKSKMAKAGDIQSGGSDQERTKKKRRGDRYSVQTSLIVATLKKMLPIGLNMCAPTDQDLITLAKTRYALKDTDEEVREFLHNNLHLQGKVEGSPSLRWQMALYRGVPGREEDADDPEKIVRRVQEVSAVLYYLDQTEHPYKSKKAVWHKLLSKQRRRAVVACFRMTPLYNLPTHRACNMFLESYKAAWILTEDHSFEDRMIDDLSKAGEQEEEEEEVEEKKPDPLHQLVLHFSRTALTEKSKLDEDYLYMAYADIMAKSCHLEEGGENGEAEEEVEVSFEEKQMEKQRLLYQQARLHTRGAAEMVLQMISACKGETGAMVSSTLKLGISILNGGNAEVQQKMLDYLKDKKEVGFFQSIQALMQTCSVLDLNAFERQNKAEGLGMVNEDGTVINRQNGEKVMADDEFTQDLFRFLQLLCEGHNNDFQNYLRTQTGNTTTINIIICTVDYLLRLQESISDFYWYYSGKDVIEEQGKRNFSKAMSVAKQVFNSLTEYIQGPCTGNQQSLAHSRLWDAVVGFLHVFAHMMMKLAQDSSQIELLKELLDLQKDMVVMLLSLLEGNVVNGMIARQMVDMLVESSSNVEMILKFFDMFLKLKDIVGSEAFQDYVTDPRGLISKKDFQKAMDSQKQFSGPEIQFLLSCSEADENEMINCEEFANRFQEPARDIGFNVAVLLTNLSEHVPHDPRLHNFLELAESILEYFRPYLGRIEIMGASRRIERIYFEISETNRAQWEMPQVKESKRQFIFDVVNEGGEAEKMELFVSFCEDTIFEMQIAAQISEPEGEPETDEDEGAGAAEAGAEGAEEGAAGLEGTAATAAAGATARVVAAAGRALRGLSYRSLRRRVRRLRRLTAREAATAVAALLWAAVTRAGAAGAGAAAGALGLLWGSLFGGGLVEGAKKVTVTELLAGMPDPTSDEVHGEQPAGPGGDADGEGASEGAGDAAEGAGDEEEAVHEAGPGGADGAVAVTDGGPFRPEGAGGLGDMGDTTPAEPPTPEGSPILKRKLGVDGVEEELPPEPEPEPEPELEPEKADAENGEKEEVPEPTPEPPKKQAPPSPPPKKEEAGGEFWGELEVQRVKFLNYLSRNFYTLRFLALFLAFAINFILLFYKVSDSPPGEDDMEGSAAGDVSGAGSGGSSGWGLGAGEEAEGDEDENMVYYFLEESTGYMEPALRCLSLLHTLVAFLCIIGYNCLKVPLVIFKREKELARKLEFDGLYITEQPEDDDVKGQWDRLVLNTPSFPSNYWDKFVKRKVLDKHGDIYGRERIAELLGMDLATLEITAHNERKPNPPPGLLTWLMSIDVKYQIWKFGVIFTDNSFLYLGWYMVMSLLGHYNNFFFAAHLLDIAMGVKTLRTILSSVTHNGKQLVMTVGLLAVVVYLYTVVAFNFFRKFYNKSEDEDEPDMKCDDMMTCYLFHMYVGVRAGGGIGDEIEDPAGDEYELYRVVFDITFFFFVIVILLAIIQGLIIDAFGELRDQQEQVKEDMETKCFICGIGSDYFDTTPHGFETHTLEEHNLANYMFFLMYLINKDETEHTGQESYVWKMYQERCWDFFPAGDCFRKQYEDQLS

B1: Car10: carbonic anhydrase 10, rodent ortholog, overexpressed (V5-tagged) protein (protein)
chain: MEIVWEVLFLLQANFIVCISAQQNSPKIHEGWWAYKEVVQGSFVPVPSFWGLVNSAWNLCSVGKRQSPVNIETSHMIFDPFLTPLRINTGGRKVSGTMYNTGRHVSLRLDKEHLVNISGGPMTYSHRLEEIRLHFGSEDSQGSEHLLNGQAFSGEVQLIHYNHELYTNVTEAAKSPNGLVVVSIFIKVSDSSNPFLNRMLNRDTITRITYKNDAYLLQGLNIEELYPETSSFITYDGSMTIPPCYETASWIIMNKPVYITRMQMHSLRLLSQNQPSQIFLSMSDNFRPVQPLNNRCIRTNINFSLQGKDCPNNRAQKLQYRVNEWLLK
modifications: left off: small tags and cut ends
notes: carbonic anhydrase 10, rodent ortholog, overexpressed (V5-tagged) protein
In the case of B1, the “binding to ITPR1 (co-immunoprecipitation)” value (ITPR1) is reported as “do not bind to ITPR1”, the “paw withdrawal latency elevation compared to morphine human oral equivalent dose” value [1] is reported as “produces profound analgesia” and the “binding to RYR1 (co-immunoprecipitation)” value (RYR1) is reported as “binds”. For the same molecule, the mechanical withdrawal threshold [2] was “prevents mechanical hyperalgesia”.

B2: CA10: human carbonic anhydrase 10, overexpressed (V5-tagged) protein; SEQ ID NO: 9 (protein)
chain: B1 chain
modifications: V5 tag
For B2, the “binding to ITPR1 (co-immunoprecipitation)” value (ITPR1) was “do not bind to ITPR1”, the “paw withdrawal latency elevation compared to morphine human oral equivalent dose” value [1] was “produces profound analgesia” and the “binding to RYR1 (co-immunoprecipitation)” value (RYR1) was “co-immunoprecipitation; also recorded: binds”. The mechanical withdrawal threshold [2] was “prevents mechanical hyperalgesia”.
